Positions count from the first letter of the chain named. Names may count otherwise.

Sequences and labels used below:
B1: hAMH+SCUT+RSA (Wild type) AMH (ligand)
chain 1: HHHHHHPAVGTSGLIFREDLDWPPGSPQEPLCLVALGGDSNGSSSPLRVVGALSAYEQAFLGAVQRARWGPRDLATFGVCNTGDRQAALPSLRRLGAWLQDPGGQRLVVLHLEEVTWEPTPSLRFQEPPPGGAGPPELALLVLYPGPGPEVTVTRAGLPGAQSLCPSRDTRYLVLAVDRPAGAWRGSGLALTLQPRGEDSRLSTARLQALLFGDDHRCFTRMTPALLLLPRSEPAPLPAHGQLDTVPFPPPRPSAELEESPPSADPFLETLTRLVRALRVPPARASAPRLALDPDALAGFPQGLVNLSDPAALERLLDGEEPLLLLLRPTAATTGDPAPLHDPTSAPWATALARRVAAELQAAAAELRSLPGLPPATAPLLARLLALCPGGPGGLGDPLRALLLLKALQGLRVEWRGRDPRGPGISSRKKR
chain 2: SVSSSAGATAADGPCALRELSVDLRAERSVLIPETYQANNCQGVCGWPQSDRNPRYGNHVVLLLKMQARGAALARPPCCVPTAYAGKLLISLSEERISAHHVPNMVATECGCR
B2: hAMH mutant S538A (ligand)
chain 1: B1 chain 1
chain 2: B1 chain 2 with S91A
B3: hAMH+SCUT+RSA H548K mutant (ligand)
chain 1: B1 chain 1
chain 2: B1 chain 2 with H101K
B4: hAMH+SCUT+RSA G533H mutant (ligand)
chain 1: B1 chain 1
chain 2: B1 chain 2 with G86H
B5: hAMH mutant L536I (ligand)
chain 1: B1 chain 1
chain 2: B1 chain 2 with L89I
B6: hAMH mutant A546M (ligand)
chain 1: B1 chain 1
chain 2: B1 chain 2 with A99M
B7: hAMH+SCUT+RSA G533S mutant (ligand)
chain 1: B1 chain 1
chain 2: B1 chain 2 with G86S
B8: hAMH+SCUT+RSA G533A mutant (ligand)
chain 1: B1 chain 1
chain 2: B1 chain 2 with G86A
B9: hAMH mutant L536M (ligand)
chain 1: B1 chain 1
chain 2: B1 chain 2 with L89M
B10: hAMH+SCUT+RSA G533K mutant (ligand)
chain 1: B1 chain 1
chain 2: B1 chain 2 with G86K
B11: hAMH+SCUT+RSA L535M mutant (ligand)
chain 1: B1 chain 1
chain 2: B1 chain 2 with L88M
B12: hAMH+SCUT+RSA double mutant G533A+L535M (ligand)
chain 1: B1 chain 1
chain 2: B1 chain 2 with G86A, L88M

The target in the test is T1, AMH-specific type II receptor, AMHR2 (UniProt Q16671 18-573, limits assumed).
T1 sequence (looked up): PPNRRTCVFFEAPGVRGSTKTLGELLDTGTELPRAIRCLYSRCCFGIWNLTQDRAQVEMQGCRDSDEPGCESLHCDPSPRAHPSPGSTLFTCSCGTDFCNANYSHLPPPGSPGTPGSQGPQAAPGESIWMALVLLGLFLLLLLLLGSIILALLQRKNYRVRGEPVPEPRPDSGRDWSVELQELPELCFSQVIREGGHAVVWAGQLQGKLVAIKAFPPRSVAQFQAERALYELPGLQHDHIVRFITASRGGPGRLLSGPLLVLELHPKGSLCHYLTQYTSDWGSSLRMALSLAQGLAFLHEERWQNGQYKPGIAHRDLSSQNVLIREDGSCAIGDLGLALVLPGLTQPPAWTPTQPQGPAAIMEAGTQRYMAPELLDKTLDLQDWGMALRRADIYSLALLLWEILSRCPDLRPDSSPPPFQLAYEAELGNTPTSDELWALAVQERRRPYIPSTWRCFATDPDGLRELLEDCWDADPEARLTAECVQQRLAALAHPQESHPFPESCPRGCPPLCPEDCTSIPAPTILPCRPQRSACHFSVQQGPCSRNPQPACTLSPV
As to the kind of experiment: cell-based or functional assay.
Consider B1, for which the “AMH activity relative to wild type (%)” value is 100% and the “EC50 in COV434 BRE-Luc assay” value is about 6 ng/mL.

In the case of B2, the “Maximal response relative to wild-type (%)” value was about 65% and the “Potency relative to ‘wild-type’” value was about 4 fold less potent.

For the molecule B3, the “AMH activity relative to wild type (%)” value was determined as 100% and the “EC50 in COV434 BRE-Luc assay” value was about 6 ng/mL.

For B4, the “AMH activity relative to wild type (%)” value stood at 100% and the “EC50 in COV434 BRE-Luc assay” value is about 6 ng/mL.

B5: the “Maximal response relative to wild-type (%)” value is about 65% and the “Potency relative to ‘wild-type’” value is about 7 fold less potent.

For the molecule B6, the “Maximal response relative to wild-type (%)” value is about 5%.

Regarding B7, the “AMH activity relative to wild type (%)” value stood at 350%, the “EC50 in COV434 BRE-Luc assay” value is about 1.8 ng/mL, the “Maximal response relative to wild-type (%)” value is about 140% and the “Potency relative to ‘wild-type’” value was about 3 fold more potent.

For B8, the “AMH activity relative to wild type (%)” value was found to be 250%, the “EC50 in COV434 BRE-Luc assay” value was about 2.8 ng/mL and the “Potency relative to ‘wild-type’” value is about 2 fold more potent.

As for B9, the “Maximal response relative to wild-type (%)” value is about 80% and the “Potency relative to ‘wild-type’” value was about 3 fold less potent.

For the molecule B10, the “AMH activity relative to wild type (%)” value is 500%, the “EC50 in COV434 BRE-Luc assay” value was about 1.2 ng/mL, the “Maximal response relative to wild-type (%)” value was about 190% and the “Potency relative to ‘wild-type’” value is about 5 fold more potent.

Take B11: the “AMH activity relative to wild type (%)” value amounted to 100% and the “EC50 in COV434 BRE-Luc assay” value was about 6 ng/mL.

As to B12, the “AMH activity relative to wild type (%)” value was found to be 100% and the “EC50 in COV434 BRE-Luc assay” value is about 6 ng/mL.
